In patent US20140087995A1 (published 2014):
Numbered stars: 1 amine (or outer) side, 2 acyl side, 3 side chain; on linkers, the order of the positions; unused ones are H or OH. Bridge positions count the residues as written; N and C are the ends. Side chains are listed from the residue outwards. Ends that are not written are not given here. * marks the point of attachment. C20 diacid = O=C(O)CCCCCCCCCCCCCCCCCCC(=O)*; γGlu = O=C(O)[C@H](CCC(=O)[*:2])N[*:1]; AEEA = NCCOCCOCC(=O)O

T1: human amylin receptor (amylin 3(a) receptor: human calcitonin receptor with RAMP-3) (human, UniProt P30988 25-474; O60896 24-148)
T1 construct: whole, on cells; Assay used cell membranes of the Amylin 3(a)/CRE-luc BHK cells, not intact cells; also called hAmylin-R; hAmylinR
T1 sequence (looked up) 1: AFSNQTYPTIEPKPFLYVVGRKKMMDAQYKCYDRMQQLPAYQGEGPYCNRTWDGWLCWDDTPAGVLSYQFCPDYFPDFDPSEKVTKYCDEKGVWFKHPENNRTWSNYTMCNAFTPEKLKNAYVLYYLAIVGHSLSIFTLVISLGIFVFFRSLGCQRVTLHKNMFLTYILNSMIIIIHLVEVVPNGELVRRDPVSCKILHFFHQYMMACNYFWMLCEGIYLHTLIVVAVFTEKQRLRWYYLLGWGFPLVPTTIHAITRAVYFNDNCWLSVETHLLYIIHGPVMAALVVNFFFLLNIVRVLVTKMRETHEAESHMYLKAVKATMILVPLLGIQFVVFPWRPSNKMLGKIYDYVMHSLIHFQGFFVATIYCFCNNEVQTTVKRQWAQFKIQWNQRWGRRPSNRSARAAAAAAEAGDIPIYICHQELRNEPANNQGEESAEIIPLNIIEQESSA
T1 sequence (looked up) 2: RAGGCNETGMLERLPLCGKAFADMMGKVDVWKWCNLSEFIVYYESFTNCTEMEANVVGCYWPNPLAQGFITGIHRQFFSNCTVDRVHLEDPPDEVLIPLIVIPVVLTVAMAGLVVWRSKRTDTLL

T2: human calcitonin receptor (human, UniProt P30988 25-474)
T2 construct: whole, on cells; Assay used cell membranes, not intact cells; also called hCTR; hCT
T2 sequence (looked up): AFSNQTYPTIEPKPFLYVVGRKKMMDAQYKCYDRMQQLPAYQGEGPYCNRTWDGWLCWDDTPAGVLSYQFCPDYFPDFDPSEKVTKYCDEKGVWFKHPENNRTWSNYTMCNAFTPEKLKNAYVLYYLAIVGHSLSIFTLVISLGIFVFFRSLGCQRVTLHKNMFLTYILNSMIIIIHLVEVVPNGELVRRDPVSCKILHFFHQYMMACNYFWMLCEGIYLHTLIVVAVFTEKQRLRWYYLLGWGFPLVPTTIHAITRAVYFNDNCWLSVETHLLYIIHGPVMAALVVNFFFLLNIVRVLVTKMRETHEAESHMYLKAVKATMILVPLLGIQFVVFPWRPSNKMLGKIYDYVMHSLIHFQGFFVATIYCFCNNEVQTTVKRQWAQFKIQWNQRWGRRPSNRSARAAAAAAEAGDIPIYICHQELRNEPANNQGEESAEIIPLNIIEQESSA


Key:
[1] = target: T1, human amylin receptor (amylin 3(a) …); assay: SPA competition with 125I-rat amylin on membranes of BHK cells with human calcitonin receptor and RAMP-3 (Assay V)
Method in brief: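 SPA beads with BHK Amylin 3(a)/CRE-luc cell membranes (35 ng/μL final) in 50 mM Hepes pH 7.4, 1 mM CaCl2, 5 mM MgCl₂, 0.1% OA, 0.02% Tween20.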

[2] = target: T2, human calcitonin receptor; assay: ratio IC50 hCTR / IC50 hAmylin-R (reference: human amylin receptor), SPA competition assays
Description: The resulting pellet was resuspended, homogenized and centrifuged (20.000 rpm, 15 min) in a buffer containing 20 mM Na-HEPES and 0.1 mM EDTA (pH 7.4, buffer 2). The resulting pellet was resuspended in buffer 2 and protein concentration was measured (BCA protein Assay, Pierce). The homogenate was kept cold during the whole procedure. The membranes were kept at −80° C. until use. The assay was performed in a 384 well Optiplate (PerkinElmer) in a total volume of 40 ul. Membranes were mixed with SPA beads. Final concentration of membranes 35 ng/μL final and SPA beads was 0.05 mg/well. Test-compounds were dissolved in DMSO and further diluted in assay buffer (50 mM Hepes, pH 7.4, 1 mM CaCl2, 5 mM MgCl₂, 0.1% OA and 0.02% Tween20). […] The final mixture was incubated with shaking at 400 rpm for 120 min at 25° C. prior to centrifugation (1500 rpm, 10 min). Samples were analyzed on TopCounter™ (Packard). The IC₅₀ was calculated using (one site binding competition analysis) GraphPad Prism5 as a measure of receptor affinity.
Membranes were prepared in the following way; the cells were rinsed with PBS and incubated with Versene for approximately 5 min before harvesting. The cells were flushed with PBS and the cell-suspension was centrifuged for 5 min at 1000 rpm. Cells were homogenized (Ultrathurrax) in a buffer containing 20 mM Na-HEPES and 10 mM EDTA (pH 7.4) and centrifuged at 20.000 rpm for 15 min. The resulting pellet was resuspended, homogenized and centrifuged (20.000 rpm, 15 min) in a buffer containing 20 mM Na-HEPES and 0.1 mM EDTA (pH 7.4, buffer 2). The resulting pellet was resuspended in buffer 2 and protein concentration was measured (BCA protein Assay, Pierce). The homogenate was kept cold during the whole procedure. The membranes were kept at −80° C. until use. Assay was performed in a 384 well Optiplate (PerkinElmer) in a total volume of 40 ul. Membranes were mixed with SPA beads.

[3] = target: T2, human calcitonin receptor; assay: SPA competition with 125I-calcitonin on membranes of BHK cells with human calcitonin receptor (Assay VII)
Method in brief: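 BHK hCTR membranes 35 ng/μL + SPA beads 0.05 mg/well; buffer 50 mM Hepes pH 7.4, 1 mM CaCl2, 5 mM MgCl₂, 0.1% OA, 0.02% Tween20. 120 min, 25° C., shaking. Scintillation count; IC50 by one-site binding competition.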

| Binder | IC50 [1] [nM] | Ratio hCT/hAmylin binding [2] | IC50 [3] [nM] |
| --- | --- | --- | --- |
| K([AEEA-γGlu-C20 diacid])CNTATCATQRLARFLRHSSPNFGAIPSSTNVGSNTY-NH2 (disulfide 2-7; N-terminus assumed; SMILES CC[C@H](C)[C@H](NC(=O)[C@H](C)NC(=O)CNC(=O)[C@H](Cc1ccccc1)NC(=O)[C@H](CC(N)=O)NC(=O)[C@@H]1CCCN1C(=O)[C@H](CO)NC(=O)[C@H](CO)NC(=O)[C@H](Cc1c[nH]cn1)NC(=O)[C@H](CCCNC(=N)N)NC(=O)[C@H](CC(C)C)NC(=O)[C@H](Cc1ccccc1)NC(=O)[C@H](CCCNC(=N)N)NC(=O)[C@H](C)NC(=O)[C@H](CC(C)C)NC(=O)[C@H](CCCNC(=N)N)NC(=O)[C@H](CCC(N)=O)NC(=O)[C@@H](NC(=O)[C@H](C)NC(=O)[C@@H]1CSSC[C@H](NC(=O)[C@@H](N)CCCCNC(=O)COCCOCCNC(=O)CC[C@H](NC(=O)CCCCCCCCCCCCCCCCCCC(=O)O)C(=O)O)C(=O)N[C@@H](CC(N)=O)C(=O)N[C@@H]([C@@H](C)O)C(=O)N[C@@H](C)C(=O)N[C@@H]([C@@H](C)O)C(=O)N1)[C@@H](C)O)C(=O)N1CCC[C@H]1C(=O)N[C@@H](CO)C(=O)N[C@@H](CO)C(=O)N[C@H](C(=O)N[C@@H](CC(N)=O)C(=O)N[C@H](C(=O)NCC(=O)N[C@@H](CO)C(=O)N[C@@H](CC(N)=O)C(=O)N[C@H](C(=O)N[C@@H](Cc1ccc(O)cc1)C(N)=O)[C@@H](C)O)C(C)C)[C@@H](C)O, also called compound 82) | 0.636 | 140 | 88.8 |
| K([AEEA-γGlu-C20 diacid])CNTATCATQRLANFLRHSSPNFGAIPSSTNVGRNTY-NH2 (disulfide 2-7; N-terminus assumed; SMILES CC[C@H](C)[C@H](NC(=O)[C@H](C)NC(=O)CNC(=O)[C@H](Cc1ccccc1)NC(=O)[C@H](CC(N)=O)NC(=O)[C@@H]1CCCN1C(=O)[C@H](CO)NC(=O)[C@H](CO)NC(=O)[C@H](Cc1c[nH]cn1)NC(=O)[C@H](CCCNC(=N)N)NC(=O)[C@H](CC(C)C)NC(=O)[C@H](Cc1ccccc1)NC(=O)[C@H](CC(N)=O)NC(=O)[C@H](C)NC(=O)[C@H](CC(C)C)NC(=O)[C@H](CCCNC(=N)N)NC(=O)[C@H](CCC(N)=O)NC(=O)[C@@H](NC(=O)[C@H](C)NC(=O)[C@@H]1CSSC[C@H](NC(=O)[C@@H](N)CCCCNC(=O)COCCOCCNC(=O)CC[C@H](NC(=O)CCCCCCCCCCCCCCCCCCC(=O)O)C(=O)O)C(=O)N[C@@H](CC(N)=O)C(=O)N[C@@H]([C@@H](C)O)C(=O)N[C@@H](C)C(=O)N[C@@H]([C@@H](C)O)C(=O)N1)[C@@H](C)O)C(=O)N1CCC[C@H]1C(=O)N[C@@H](CO)C(=O)N[C@@H](CO)C(=O)N[C@H](C(=O)N[C@@H](CC(N)=O)C(=O)N[C@H](C(=O)NCC(=O)N[C@@H](CCCNC(=N)N)C(=O)N[C@@H](CC(N)=O)C(=O)N[C@H](C(=O)N[C@@H](Cc1ccc(O)cc1)C(N)=O)[C@@H](C)O)C(C)C)[C@@H](C)O, also called compound 78) | 0.602 | 60.7 | 36.5 |

The next lines start with the values.

| IC50 [1] [nM] | Ratio hCT/hAmylin binding [2] | IC50 [3] [nM] | Binder |
| --- | --- | --- | --- |
| 0.215 | 80 | 17.2 | K([AEEA-γGlu-C20 diacid])CNTATCATQRLANFLRHSSPNFGAIPSSTNVGHNTY-NH2 (disulfide 2-7; N-terminus assumed; SMILES CC[C@H](C)[C@H](NC(=O)[C@H](C)NC(=O)CNC(=O)[C@H](Cc1ccccc1)NC(=O)[C@H](CC(N)=O)NC(=O)[C@@H]1CCCN1C(=O)[C@H](CO)NC(=O)[C@H](CO)NC(=O)[C@H](Cc1c[nH]cn1)NC(=O)[C@H](CCCNC(=N)N)NC(=O)[C@H](CC(C)C)NC(=O)[C@H](Cc1ccccc1)NC(=O)[C@H](CC(N)=O)NC(=O)[C@H](C)NC(=O)[C@H](CC(C)C)NC(=O)[C@H](CCCNC(=N)N)NC(=O)[C@H](CCC(N)=O)NC(=O)[C@@H](NC(=O)[C@H](C)NC(=O)[C@@H]1CSSC[C@H](NC(=O)[C@@H](N)CCCCNC(=O)COCCOCCNC(=O)CC[C@H](NC(=O)CCCCCCCCCCCCCCCCCCC(=O)O)C(=O)O)C(=O)N[C@@H](CC(N)=O)C(=O)N[C@@H]([C@@H](C)O)C(=O)N[C@@H](C)C(=O)N[C@@H]([C@@H](C)O)C(=O)N1)[C@@H](C)O)C(=O)N1CCC[C@H]1C(=O)N[C@@H](CO)C(=O)N[C@@H](CO)C(=O)N[C@H](C(=O)N[C@@H](CC(N)=O)C(=O)N[C@H](C(=O)NCC(=O)N[C@@H](Cc1c[nH]cn1)C(=O)N[C@@H](CC(N)=O)C(=O)N[C@H](C(=O)N[C@@H](Cc1ccc(O)cc1)C(N)=O)[C@@H](C)O)C(C)C)[C@@H](C)O, also called compound 76) |
| 0.743 | 120 | 88.9 | K([AEEA-γGlu-C20 diacid])CNTATCATQRLAHFLRHSSPNFGAIPSSTNVGRNTY-NH2 (disulfide 2-7; N-terminus assumed; SMILES CC[C@H](C)[C@H](NC(=O)[C@H](C)NC(=O)CNC(=O)[C@H](Cc1ccccc1)NC(=O)[C@H](CC(N)=O)NC(=O)[C@@H]1CCCN1C(=O)[C@H](CO)NC(=O)[C@H](CO)NC(=O)[C@H](Cc1c[nH]cn1)NC(=O)[C@H](CCCNC(=N)N)NC(=O)[C@H](CC(C)C)NC(=O)[C@H](Cc1ccccc1)NC(=O)[C@H](Cc1c[nH]cn1)NC(=O)[C@H](C)NC(=O)[C@H](CC(C)C)NC(=O)[C@H](CCCNC(=N)N)NC(=O)[C@H](CCC(N)=O)NC(=O)[C@@H](NC(=O)[C@H](C)NC(=O)[C@@H]1CSSC[C@H](NC(=O)[C@@H](N)CCCCNC(=O)COCCOCCNC(=O)CC[C@H](NC(=O)CCCCCCCCCCCCCCCCCCC(=O)O)C(=O)O)C(=O)N[C@@H](CC(N)=O)C(=O)N[C@@H]([C@@H](C)O)C(=O)N[C@@H](C)C(=O)N[C@@H]([C@@H](C)O)C(=O)N1)[C@@H](C)O)C(=O)N1CCC[C@H]1C(=O)N[C@@H](CO)C(=O)N[C@@H](CO)C(=O)N[C@H](C(=O)N[C@@H](CC(N)=O)C(=O)N[C@H](C(=O)NCC(=O)N[C@@H](CCCNC(=N)N)C(=O)N[C@@H](CC(N)=O)C(=O)N[C@H](C(=O)N[C@@H](Cc1ccc(O)cc1)C(N)=O)[C@@H](C)O)C(C)C)[C@@H](C)O, also called compound 84) |
